B1: MHM24 direct hypervariable region graft on the acceptor human consensus framework (Fab displayed on phage) (Fab, V domains shown)
VH: EVQLVESGGGLVQPGGSLRLSCAASGYSFTGHWMNWVRQAPGKGLEWVGMIHPSDSETRLNQKFKDRFTISADTSKNTAYLQMNSLRAEDTAVYYCARGIYFYGTTYFDYWGQGTLVTVSS
VL: DIQMTQSPSSLSASVGDRVTITCRASKTISKYLAWYQQKPGKAPKLLIYSGSTLQSGVPSRFSGSGSGTDFTLTISSLQPEDFATYYCQQHNEYPLTFGQGTKVEIK
B2: MHM24 library clone, CDR-L2 SGSTLES (Fab, V domains shown)
VH: EVQLVESGGGLVQPGGSLRLSCAASGYSFTGHWMNWVRQAPGKGLEWVGMIHPSDSETRLNQKFKDRFTISADTSKNTAYLQMNSLRAEDTAVYYCARGIYFYGTTYFDYWGQGTLVTVSS
VL: DIQMTQSPSSLSASVGDRVTITCRASKTISKYLAWYQQKPGKAPKLLIYSGSTLESGVPSRFSGSGSGTDFTLTISSLQPEDFATYYCQQHNEYPLTFGQGTKVEIK
B3: MHM24 library clone, CDR-L2 SGSTLES, VH S55I (Fab, V domains shown)
VH: EVQLVESGGGLVQPGGSLRLSCAASGYSFTGHWMNWVRQAPGKGLEWVGMIHPSDIETRLNQKFKDRFTISADTSKNTAYLQMNSLRAEDTAVYYCARGIYFYGTTYFDYWGQGTLVTVSS
VL: DIQMTQSPSSLSASVGDRVTITCRASKTISKYLAWYQQKPGKAPKLLIYSGSTLESGVPSRFSGSGSGTDFTLTISSLQPEDFATYYCQQHNEYPLTFGQGTKVEIK
B4: MHM24 library clone, CDR-L2 SGRTLWP (Fab, V domains shown)
VH: EVQLVESGGGLVQPGGSLRLSCAASGYSFTGHWMNWVRQAPGKGLEWVGMIHPSDSETRLNQKFKDRFTISADTSKNTAYLQMNSLRAEDTAVYYCARGIYFYGTTYFDYWGQGTLVTVSS
VL: DIQMTQSPSSLSASVGDRVTITCRASKTISKYLAWYQQKPGKAPKLLIYSGRTLWPGVPSRFSGSGSGTDFTLTISSLQPEDFATYYCQQHNEYPLTFGQGTKVEIK
B5: MHM24 library clone, CDR-L2 SGSIFQY, VH Y100dT (Fab, part only; not given: CH1, light constant and phage P3, part only)
light chain: DIQMTQSPSSLSASVGDRVTITCRASKTISKYLAWYQQKPGKAPKLLIYSGSIFQYGVPSRFSGSGSGTDFTLTISSLQPEDFATYYCQQHNEYPLTFGQGTKVEIKR
heavy chain (VH-CH1 fused to phage P3), part: EVQLVESGGGLVQPGGSLRLSCAASGYSFTGHWMNWVRQAPGKGLEWVGMIHPSDSETRLNQKFKDRFTISADTSKNTAYLQMNSLRAEDTAVYYCARGIYFYGTTYFDYWGQGTLVTVSS
B6: MHM24 library clone, CDR-L2 TGSTLES, VL S26T (Fab, V domains shown)
VH: EVQLVESGGGLVQPGGSLRLSCAASGYSFTGHWMNWVRQAPGKGLEWVGMIHPSDSETRLNQKFKDRFTISADTSKNTAYLQMNSLRAEDTAVYYCARGIYFYGTTYFDYWGQGTLVTVSS
VL: DIQMTQSPSSLSASVGDRVTITCRATKTISKYLAWYQQKPGKAPKLLIYTGSTLESGVPSRFSGSGSGTDFTLTISSLQPEDFATYYCQQHNEYPLTFGQGTKVEIK
B7: MHM24 library clone, CDR-L2 NARSLQS (Fab, V domains shown)
VH: EVQLVESGGGLVQPGGSLRLSCAASGYSFTGHWMNWVRQAPGKGLEWVGMIHPSDSETRLNQKFKDRFTISADTSKNTAYLQMNSLRAEDTAVYYCARGIYFYGTTYFDYWGQGTLVTVSS
VL: DIQMTQSPSSLSASVGDRVTITCRASKTISKYLAWYQQKPGKAPKLLIYNARSLQSGVPSRFSGSGSGTDFTLTISSLQPEDFATYYCQQHNEYPLTFGQGTKVEIK
B8: MHM24 library clone, CDR-L2 SGGTLHR (Fab, V domains shown)
VH: EVQLVESGGGLVQPGGSLRLSCAASGYSFTGHWMNWVRQAPGKGLEWVGMIHPSDSETRLNQKFKDRFTISADTSKNTAYLQMNSLRAEDTAVYYCARGIYFYGTTYFDYWGQGTLVTVSS
VL: DIQMTQSPSSLSASVGDRVTITCRASKTISKYLAWYQQKPGKAPKLLIYSGGTLHRGVPSRFSGSGSGTDFTLTISSLQPEDFATYYCQQHNEYPLTFGQGTKVEIK
B9: MHM24 library clone, CDR-L2 SGYSLHR, VL K27E, L96V (Fab, V domains shown)
VH: EVQLVESGGGLVQPGGSLRLSCAASGYSFTGHWMNWVRQAPGKGLEWVGMIHPSDSETRLNQKFKDRFTISADTSKNTAYLQMNSLRAEDTAVYYCARGIYFYGTTYFDYWGQGTLVTVSS
VL: DIQMTQSPSSLSASVGDRVTITCRASETISKYLAWYQQKPGKAPKLLIYSGYSLHRGVPSRFSGSGSGTDFTLTISSLQPEDFATYYCQQHNEYPVTFGQGTKVEIK
B10: MHM24 library clone, CDR-L2 SGSTLES, VH D101E (Fab, V domains shown)
VH: EVQLVESGGGLVQPGGSLRLSCAASGYSFTGHWMNWVRQAPGKGLEWVGMIHPSDSETRLNQKFKDRFTISADTSKNTAYLQMNSLRAEDTAVYYCARGIYFYGTTYFEYWGQGTLVTVSS
VL: DIQMTQSPSSLSASVGDRVTITCRASKTISKYLAWYQQKPGKAPKLLIYSGSTLESGVPSRFSGSGSGTDFTLTISSLQPEDFATYYCQQHNEYPLTFGQGTKVEIK
B11: MHM24 library clone, CDR-L2 SGRSLQS, VH S28R (Fab, V domains shown)
VH: EVQLVESGGGLVQPGGSLRLSCAASGYRFTGHWMNWVRQAPGKGLEWVGMIHPSDSETRLNQKFKDRFTISADTSKNTAYLQMNSLRAEDTAVYYCARGIYFYGTTYFDYWGQGTLVTVSS
VL: DIQMTQSPSSLSASVGDRVTITCRASKTISKYLAWYQQKPGKAPKLLIYSGRSLQSGVPSRFSGSGSGTDFTLTISSLQPEDFATYYCQQHNEYPLTFGQGTKVEIK
B12: MHM24 library clone, CDR-L2 SGRAMQR (Fab, V domains shown)
VH: EVQLVESGGGLVQPGGSLRLSCAASGYSFTGHWMNWVRQAPGKGLEWVGMIHPSDSETRLNQKFKDRFTISADTSKNTAYLQMNSLRAEDTAVYYCARGIYFYGTTYFDYWGQGTLVTVSS
VL: DIQMTQSPSSLSASVGDRVTITCRASKTISKYLAWYQQKPGKAPKLLIYSGRAMQRGVPSRFSGSGSGTDFTLTISSLQPEDFATYYCQQHNEYPLTFGQGTKVEIK
B13: MHM24 library clone, CDR-L2 SGRSLQR, VH L45P (Fab, V domains shown)
VH: EVQLVESGGGLVQPGGSLRLSCAASGYSFTGHWMNWVRQAPGKGPEWVGMIHPSDSETRLNQKFKDRFTISADTSKNTAYLQMNSLRAEDTAVYYCARGIYFYGTTYFDYWGQGTLVTVSS
VL: DIQMTQSPSSLSASVGDRVTITCRASKTISKYLAWYQQKPGKAPKLLIYSGRSLQRGVPSRFSGSGSGTDFTLTISSLQPEDFATYYCQQHNEYPLTFGQGTKVEIK
B14: MHM24 library clone, CDR-L2 SGRALQS (Fab, V domains shown)
VH: EVQLVESGGGLVQPGGSLRLSCAASGYSFTGHWMNWVRQAPGKGLEWVGMIHPSDSETRLNQKFKDRFTISADTSKNTAYLQMNSLRAEDTAVYYCARGIYFYGTTYFDYWGQGTLVTVSS
VL: DIQMTQSPSSLSASVGDRVTITCRASKTISKYLAWYQQKPGKAPKLLIYSGRALQSGVPSRFSGSGSGTDFTLTISSLQPEDFATYYCQQHNEYPLTFGQGTKVEIK
B15: MHM24 library clone, CDR-L2 SGSALQS (Fab, V domains shown)
VH: EVQLVESGGGLVQPGGSLRLSCAASGYSFTGHWMNWVRQAPGKGLEWVGMIHPSDSETRLNQKFKDRFTISADTSKNTAYLQMNSLRAEDTAVYYCARGIYFYGTTYFDYWGQGTLVTVSS
VL: DIQMTQSPSSLSASVGDRVTITCRASKTISKYLAWYQQKPGKAPKLLIYSGSALQSGVPSRFSGSGSGTDFTLTISSLQPEDFATYYCQQHNEYPLTFGQGTKVEIK

Target: human LFA-1 (human) (UniProt P20701)
Assay: phage ELISA, Fab on phage, competition with antigen in solution

B1 showed an IC50 of 6 nM.

Target: human LFA-1 (human) (UniProt P20701)
Assay: phage ELISA, Fab on phage, competition with antigen in solution; IC50 used as affinity estimate

B1 gave an IC50 of 4 nM.

Target: human LFA-1 (human) (UniProt P20701)
Assay: phage ELISA, solution competition: Fab-phage incubated with serially diluted LFA-1, unbound phage captured on LFA-1-coated wells; IC50 used as affinity estimate

Compared with B2, B3 is 2.2-fold lower in IC50: 9 nM for the first, 4 nM for the second.

Compared with B1, B4 is 2.8-fold higher in IC50: 6 nM for the first, 17 nM for the second. The first is the more potent here.

Going from B5 to B6, the IC50 falls from 11 nM to 4 nM (2.8-fold).

Going from B7 to B8, the IC50 falls from 32 nM to 6 nM (5.3-fold).

Going from B9 to B10, the IC50 falls from 41 nM to 8 nM (5.1-fold).

First: B11
Second: B12
The IC50 of the first is 1.5-fold higher: 17 nM for the first, 11 nM for the second. The second is the more potent here.

Going from B13 to B14, the IC50 falls from 27 nM to 9 nM (3-fold). The second is the more potent here.

With B15 the IC50 was 8 nM.

— patent US20110237779A1
